Results as given in the RNAGym collection of RNA variant scans (doi:10.7554/elife.80360).

B1: Hairpin Ribozyme (parent)
chain: GUCCUCUUUCACGUGCGCGUGAAAGAGAGAAGUGAACCAGAGAAACACACGUUGUGGUAUAUUACCUGGUA

Variants of: B1
Test: self-cleavage, relative activity (ratio to wild type); higher = more cleavage; co-transcriptional
With U9G U33C the self-cleavage was 0.176.
In the case of U9G U33A, the self-cleavage is reported as 0.102.
Work on U9C C12U yielded a self-cleavage of 0.665.
For C10G C16U, the self-cleavage was 0.735.
For C10G C16A, the self-cleavage was 0.555.
With U9C U14C the self-cleavage was 0.533.
C10A C48A showed a self-cleavage of 0.102.
C10A C48U showed a self-cleavage of 0.0572.
In the case of C10A C48G, the self-cleavage is reported as 0.157.
C10G G13A showed a self-cleavage of 0.568.
C10G G56A gave a self-cleavage of 0.156.
C10U A39U gave a self-cleavage of 0.334.
For U9G A24G, the self-cleavage was 0.672.
For U9G U62G, the self-cleavage was 0.154.
Work on C10U A28U yielded a self-cleavage of 0.357.
Variant U9A U53C has a self-cleavage of 0.732.
In the case of U9A U53G, the self-cleavage is reported as 0.703.
With C10G C46A the self-cleavage was 0.106.
For C10G G29C, the self-cleavage was 0.106.
C10G G29A gave a self-cleavage of 0.0932.
U9G A59C gave a self-cleavage of 0.275.
For U9G A59U, the self-cleavage was 0.101.
For U9C A47G, the self-cleavage was 0.123.
U9C U67G gave a self-cleavage of 0.283.
In the case of U9C U67C, the self-cleavage is reported as 0.203.
With U9G A41U the self-cleavage was 1.15.
With U9G G29C the self-cleavage was 0.129.
U9G G29U showed a self-cleavage of 0.1.
U9G G29A gave a self-cleavage of 0.0566.
With U9A U58G the self-cleavage was 0.494.
With U9A U58A the self-cleavage was 0.344.
C10A A23C showed a self-cleavage of 0.657.
In the case of U9C U33C, the self-cleavage is reported as 0.104.
With C10A C12G the self-cleavage was 0.556.
Variant C10A C12U has a self-cleavage of 0.452.
C10U G68A showed a self-cleavage of 0.217.
With A11C A61U the self-cleavage was 0.118.
A11C A61G showed a self-cleavage of 0.0356.
Work on C10G U62A yielded a self-cleavage of 0.0993.
With C10G U62C the self-cleavage was 0.261.
For U9G G42U, the self-cleavage was 0.364.
Work on U9G C10U yielded a self-cleavage of 0.743.
Variant U9G C10A has a self-cleavage of 0.735.
In the case of A11C A39G, the self-cleavage is reported as 0.275.
With A11C A39C the self-cleavage was 0.514.
With C10A U67A the self-cleavage was 0.0418.
U9G U55C showed a self-cleavage of 0.163.
Work on U9G A39C yielded a self-cleavage of 0.356.
A11C A43U showed a self-cleavage of 0.163.
Variant C10U G32U has a self-cleavage of 0.164.
Variant C10U G32A has a self-cleavage of 0.176.
Work on C10A A61C yielded a self-cleavage of 0.18.
In the case of C10A A61U, the self-cleavage is reported as 0.194.
U9G C12A gave a self-cleavage of 0.499.
U9G C12G gave a self-cleavage of 0.53.
For U9G G54A, the self-cleavage was 0.418.
C10A A36C gave a self-cleavage of 0.528.
With U9G A36C the self-cleavage was 0.381.
In the case of U9G A36G, the self-cleavage is reported as 0.793.
Work on U9G A36U yielded a self-cleavage of 0.431.
C10U C65A showed a self-cleavage of 0.642.
C10U C65U showed a self-cleavage of 0.204.
For C10A C65U, the self-cleavage was 0.274.
For C10G G32U, the self-cleavage was 0.15.
A11C A64C showed a self-cleavage of 0.0846.
For A11C A64G, the self-cleavage was 0.462.
In the case of C10U G69C, the self-cleavage is reported as 0.235.
With C10A C37U the self-cleavage was 0.437.
Work on C10A C37G yielded a self-cleavage of 0.266.
With U9C C37U the self-cleavage was 0.529.
For U9C C37G, the self-cleavage was 0.595.
With C10U G13C the self-cleavage was 0.471.
C10U G13U showed a self-cleavage of 0.612.
In the case of U9A U55G, the self-cleavage is reported as 0.279.
With C10U C46U the self-cleavage was 0.152.
For C10U A24C, the self-cleavage was 0.613.
With C10U A24U the self-cleavage was 0.778.
C10U A24G gave a self-cleavage of 0.885.
C10G A23U gave a self-cleavage of 0.656.
With C10A C50A the self-cleavage was 0.255.
In the case of C10A C50G, the self-cleavage is reported as 0.352.
For C10A U58C, the self-cleavage was 0.858.
For C10U A49G, the self-cleavage was 0.422.
In the case of C10U A49C, the self-cleavage is reported as 0.143.
Variant C10G A30U has a self-cleavage of 0.0991.
For C10G A30G, the self-cleavage was 0.143.
With C10G A30C the self-cleavage was 0.168.
U9G G32U gave a self-cleavage of 0.123.
With U9C U58C the self-cleavage was 0.747.
For C10A G51A, the self-cleavage was 0.695.
With C10U G27A the self-cleavage was 0.403.
In the case of C10G C50A, the self-cleavage is reported as 0.198.
With A11C C48A the self-cleavage was 0.0917.
A11C C48G showed a self-cleavage of 0.0688.
Variant U9G A11U has a self-cleavage of 0.566.
With U9C G51A the self-cleavage was 0.775.
Variant U9C G51C has a self-cleavage of 0.761.
C10U G34C showed a self-cleavage of 1.02.
U9G G19C gave a self-cleavage of 0.56.
Work on C10G A39U yielded a self-cleavage of 0.273.
In the case of C10G G21U, the self-cleavage is reported as 0.872.
For C10G G21C, the self-cleavage was 0.93.
Variant C10G G21A has a self-cleavage of 0.704.
Variant C10G A43G has a self-cleavage of 0.175.
With U9G G68C the self-cleavage was 0.136.
With C10G G34U the self-cleavage was 1.06.
C10G U58C showed a self-cleavage of 0.681.
C10A A47U showed a self-cleavage of 0.177.
Variant C10A A71U has a self-cleavage of 0.557.
In the case of U9C C50U, the self-cleavage is reported as 0.314.
For U9C C50G, the self-cleavage was 0.258.
Work on C10A G34C yielded a self-cleavage of 0.942.
With C10A G29U the self-cleavage was 0.0922.
With C10A G29C the self-cleavage was 0.16.
With C10G G17C the self-cleavage was 0.533.
With C10G G17U the self-cleavage was 0.539.
U9C G68U gave a self-cleavage of 0.217.
U9G G57A gave a self-cleavage of 0.132.
U9G G51A gave a self-cleavage of 0.626.
For U9C A26U, the self-cleavage was 0.546.
With U9G U58C the self-cleavage was 0.794.
U9G U58G gave a self-cleavage of 0.579.
C10A G27A gave a self-cleavage of 0.35.
C10A G27U gave a self-cleavage of 0.233.
Variant U9C G13U has a self-cleavage of 0.469.
Work on C10G G54C yielded a self-cleavage of 0.193.
C10U C18G showed a self-cleavage of 0.755.
Work on C10A U63A yielded a self-cleavage of 0.118.
U9G G17U gave a self-cleavage of 0.847.
U9G G17A showed a self-cleavage of 0.571.
For U9G G25A, the self-cleavage was 0.153.
In the case of C10G C66U, the self-cleavage is reported as 0.347.
In the case of C10G C66G, the self-cleavage is reported as 0.189.
Work on U9G A49U yielded a self-cleavage of 0.163.
In the case of U9G A49C, the self-cleavage is reported as 0.182.
For U9C A64G, the self-cleavage was 0.381.
With U9C A64U the self-cleavage was 0.0987.
Variant U9C A64C has a self-cleavage of 0.201.
In the case of A11C C16U, the self-cleavage is reported as 0.811.
In the case of U9A U70G, the self-cleavage is reported as 0.532.
Variant U9C A24U has a self-cleavage of 0.677.
C10U U60G gave a self-cleavage of 0.435.
With C10U U70G the self-cleavage was 0.698.
For C10A G17A, the self-cleavage was 0.622.
With U9C G25C the self-cleavage was 0.314.
For U9C G25A, the self-cleavage was 0.24.
For U9G A45C, the self-cleavage was 0.0983.
With C10U U20A the self-cleavage was 0.774.
In the case of C10A A24G, the self-cleavage is reported as 0.57.
Variant C10A A24U has a self-cleavage of 0.584.
In the case of C10A A43U, the self-cleavage is reported as 0.133.
Variant C10A A28C has a self-cleavage of 0.251.
Work on U9G A44U yielded a self-cleavage of 0.162.
With C10U G29C the self-cleavage was 0.159.
For C10U G29U, the self-cleavage was 0.134.
Work on C10U G42U yielded a self-cleavage of 0.269.
C10U G42C gave a self-cleavage of 0.266.
For U9C U70G, the self-cleavage was 0.687.
Variant C10G A35G has a self-cleavage of 0.656.
C10G A35C showed a self-cleavage of 0.726.
Variant C10A U20G has a self-cleavage of 0.663.
C10U G25A showed a self-cleavage of 0.429.
For U9G G27C, the self-cleavage was 0.115.
U9G C18A showed a self-cleavage of 0.707.
Variant C10A U55A has a self-cleavage of 0.23.
Variant C10U U63G has a self-cleavage of 0.263.
Variant C10U U63A has a self-cleavage of 0.25.
